Measurements reported in US10487337B2, “Methods for monocot plant improvement” (Agresearch Limited, priority 2014, dated 2019).

How the values were obtained:
[1] = target: T1, NINJA (Arabidopsis thaliana, UniProt Q9SV55); assay: Yeast two hybrid (Y2H) interaction with NINJA; type: binding; details: Y2H screening, PPD1 as bait
T1 construct: expressed in transfected cells; host or cells: yeast strain MaV203
T1 sequence (Q9SV55 with tags, fused parts or gaps): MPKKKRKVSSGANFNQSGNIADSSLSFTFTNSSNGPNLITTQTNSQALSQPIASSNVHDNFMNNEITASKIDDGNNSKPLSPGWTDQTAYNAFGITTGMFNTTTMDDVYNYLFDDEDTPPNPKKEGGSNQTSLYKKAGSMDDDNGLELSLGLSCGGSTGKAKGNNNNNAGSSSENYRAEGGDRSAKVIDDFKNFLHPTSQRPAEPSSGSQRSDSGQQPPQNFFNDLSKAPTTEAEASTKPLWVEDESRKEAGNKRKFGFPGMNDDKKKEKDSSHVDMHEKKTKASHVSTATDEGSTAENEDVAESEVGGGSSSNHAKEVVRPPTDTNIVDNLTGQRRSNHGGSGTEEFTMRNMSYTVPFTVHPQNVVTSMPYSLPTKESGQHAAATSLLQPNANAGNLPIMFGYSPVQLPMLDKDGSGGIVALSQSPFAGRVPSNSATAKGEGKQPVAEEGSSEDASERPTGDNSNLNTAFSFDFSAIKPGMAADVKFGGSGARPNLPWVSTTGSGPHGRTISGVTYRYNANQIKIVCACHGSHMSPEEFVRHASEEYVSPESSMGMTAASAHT
From the text: The constructs for Y2H and BiFC assays were generated as follows. Arabidopsis DNA sequences encoding the open reading frames for; At4g14713 (PPD1) and truncation and deletion derivatives of PPD1: PPD1; PPD1Δppd (N-terminal truncation of sequences encoding aa 1-61), PPD1Δtify, (internal deletion of sequences encoding aa 154-186), PPD1Δjas*(C-terminal truncation of sequences encoding aa 229-313) (FIG. 5), At4g28910 (NINJA), At1g15750 (TPL), At1g75080 (BZR1), a synthetic PUAS-35S promoter, and sequences encoding GAL4DBD and c-myc fusion proteins were synthesised and sequence verified by GeneArt. Most sequences were supplied as clones in pENTR221 ready for Gateway cloning into yeast and plant expression vectors. The exception, a promoter sequence for in planta transcription activation assays, incorporating 5′ Xho1 and 3′ Nco1 restriction enzyme sites, was supplied cloned in pMA-RQ. Plasmids for the transient LUC reporter assay: A synthetic promoter with 5×UAS GAL4 DNA binding sites upstream of a −105 bp CaMV35S promoter was cloned into the XhoI-NcoI sites within a dual luciferase construct pNWA62, which contains an intron-containing Firefly Luciferase gene (LUC) and 35Spro::Renilla Luciferase (REN) as an internal standard, to construct pAML7. […]

[2] = test system: Arabidopsis Δppd mutant; assay: Complementation of the Arabidopsis Δppd mutant leaf phenotype; type: in vivo; details: CaMV35s promoter, Arabidopsis thaliana ecotype Landsberg erecta, FIG. 13
From the text: The functionality of any PEAPOD sequence can be confirmed by complementation of the Arabidopsis Δppd mutant leaf phenotype. Complementation of the Arabidopsis Δppd mutant leaf phenotype was first used to identify the Arabidopsis PPD gene (White 2006). This was seen by a restoration of the wild type flattened leaf phenotype and normal rosette shape as opposed to the domed leaf and the twisting of the rosette to a “propeller” phenotype.
Arabidopsis thaliana (L.) Heynh ecotype Ler can be used as wild-type (WT). The Δppd loss of function deletion mutant (with PPD1 and PPD2 deleted) is as previously described in White 2006, PNAS 103, 13238-13243.
Plants are grown in a temperature-controlled glasshouse at a continuous 21° C. or in a controlled environment cabinet at 23° C. in 16-h light_8-h dark cycles.
Constructs above can be transformed into Arabidopsis by the floral dip infiltration method (Clough and Bent, 1998, Plant J 16, 735-43). The Δppd line is transformed to express the PPD polypeptides by standard techniques. Transgenic plants are confirmed by standard PCR analysis techniques with a combination of transgene-specific and T-DNA primers.
Complementation of the Δppd line to produce a wild-type leaf and rosette phenotype in T1 seedlings (the off-spring of the infiltrated plant) confirms PEAPOD functionality of the introduced gene, which can be shown in photographs.

B1: PPD1: PEAPOD 1 protein of Arabidopsis thaliana, SEQ ID NO: 1 (protein, listed as Arabidopsis thaliana)
chain: MDVGVSPAKSILAKPLKLLTEEDISQLTREDCRKFLKDKGMRRPSWNKSQAIQQVLSLKALYEPGDDSGAGIFRKILVSQPVNPPRVTTTLIEPSNELEACGRVSYPEDNGACHRMDSPRSAEFSGGSGHFVSEKDGHKTTISPRSPAETSELVGQMTIFYSGKVNVYDGIPPEKARSIMHFAANPIDLPENGIFASSRMISKLISKEKMMELPQKGLEKANSSRDSGMEGQANRKVSLQRYREKRKDRKFSKAKKCPGVASSSLEMFLNCQPRMKAAYSQNLGCTGSPLHSQSPESQTKSPNLSVDLNSEGI
**Q.** What does the source list for B1?
**A.** interaction with NINJA [1]: direct interactor; PEAPOD functionality by complementation of the Δppd deletion mutant [2]: functionally equivalent
